Results on 3 substances are retold here after patent US20140162947A1.

Targets include CCR7 (mouse) (UniProt P47774); CXCR3 (mouse) (UniProt O88410); CXCR4 (mouse) (UniProt P70658).
Common to all, as to assay: cell-based or functional assay

UniProt P70658, sequence (P70658 whole entry): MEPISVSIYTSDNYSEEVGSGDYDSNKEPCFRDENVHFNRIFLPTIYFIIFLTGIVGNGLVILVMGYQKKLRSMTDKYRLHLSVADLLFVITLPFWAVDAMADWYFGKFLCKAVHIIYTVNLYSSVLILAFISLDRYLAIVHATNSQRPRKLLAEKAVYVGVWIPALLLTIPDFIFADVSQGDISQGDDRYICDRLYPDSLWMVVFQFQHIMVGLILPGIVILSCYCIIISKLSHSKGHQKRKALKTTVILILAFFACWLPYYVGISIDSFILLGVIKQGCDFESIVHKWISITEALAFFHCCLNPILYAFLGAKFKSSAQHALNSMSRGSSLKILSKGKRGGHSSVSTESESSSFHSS
UniProt O88410, sequence (O88410 whole entry): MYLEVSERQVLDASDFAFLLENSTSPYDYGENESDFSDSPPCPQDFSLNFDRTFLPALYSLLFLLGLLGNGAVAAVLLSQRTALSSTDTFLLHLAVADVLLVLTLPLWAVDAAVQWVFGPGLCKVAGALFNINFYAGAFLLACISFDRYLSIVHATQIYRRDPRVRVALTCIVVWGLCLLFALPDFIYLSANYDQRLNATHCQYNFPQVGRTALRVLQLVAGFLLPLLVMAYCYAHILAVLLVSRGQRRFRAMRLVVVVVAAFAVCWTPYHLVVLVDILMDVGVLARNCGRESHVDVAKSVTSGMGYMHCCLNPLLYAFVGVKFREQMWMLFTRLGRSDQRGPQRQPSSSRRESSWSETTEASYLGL
UniProt P47774, sequence (P47774 25-378): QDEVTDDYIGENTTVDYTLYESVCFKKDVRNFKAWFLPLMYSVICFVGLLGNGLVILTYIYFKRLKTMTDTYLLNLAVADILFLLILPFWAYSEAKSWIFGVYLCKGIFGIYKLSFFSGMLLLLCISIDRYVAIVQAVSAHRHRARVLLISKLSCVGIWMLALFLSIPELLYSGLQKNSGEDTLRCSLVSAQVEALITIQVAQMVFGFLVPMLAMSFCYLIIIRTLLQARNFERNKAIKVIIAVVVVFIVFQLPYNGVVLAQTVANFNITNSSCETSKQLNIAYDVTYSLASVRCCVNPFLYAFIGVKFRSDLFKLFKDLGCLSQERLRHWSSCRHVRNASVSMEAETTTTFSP

Turning to CCL21 (ligand), the migration of WT GMP- and CMP-derived PACs in a transwell Boyden chamber, fold over BSA control with CCR7 (mouse) came to 4 fold.
In the test with CXCR3 (mouse), CXCL10 (ligand) returned a migration of WT GMP- and CMP-derived PACs in a transwell Boyden chamber, fold over BSA control of 4 fold.
Consider SDF-1α (ligand), for which, in the test with CXCR4 (mouse), the migration of WT CMP-derived PACs in a transwell Boyden chamber, fold over BSA control amounted to 23 fold and the migration of WT GMP-derived PACs in a transwell Boyden chamber, fold over BSA control turned out to be 19 fold.
